{"source": "the MegaScale stability set (Tsuboyama et al. 2023)", "parents": {"B1": {"name": "EEHEE_rd4_0003 (parent)", "chain": "KKVTINGVEIKFNNPEEAVKFALELAKRLNLRIEFHGDQIKIE"}}, "data": [{"variants_of": "B1", "experiment": "folding stability dG (cDNA display proteolysis); higher = more stable", "conditions": "PBS, room temperature", "units": {"folding stability dG": "kcal/mol"}, "values": [{"variant": "KKVTINGVEIKFNNPEEALKFALELAKRLNLRIEFHGDQIKIE", "folding stability dG": 3.07}, {"variant": "KKVTINGVEIKFNNPEEAFKFALELAKRLNLRIEFHGDQIKIE", "folding stability dG": 2.75}, {"variant": "KKVTINGVEIKFNNPEEAVKFALELAKRLNLRWEFHGDQIKIE", "folding stability dG": 2.08}, {"variant": "KKVTINGVEIKFNNPEEAVKFALELAKRLNLRKEFHGDQIKIE", "folding stability dG": 0.882}, {"variant": "KKVTINGVEIKFNNPEEAVKFALELAKRLNLRIEFHGDQIKIQ", "folding stability dG": 2.66}, {"variant": "KKVTINGVEIKFNNPEEAVKFALELAKRLNLRIEFHGDQIKIG", "folding stability dG": 2.8}, {"variant": "KKVTINGVEIKFNNPEEAVKFALELAKRLNLRIEFHGDQIKIL", "folding stability dG": 3.23}, {"variant": "KKVTINGVEIKFNNPEEAVKFALELAKRLNLRIEFHGDQIKIN", "folding stability dG": 2.6}, {"variant": "KKVTINGVEIKFNNPEEAVKFALELAKRLNLRIEFYGDQIKIE", "folding stability dG": 2.75}, {"variant": "KKVTINGVEIKFNNPEEAVKFALELAKRLNLRIEFWGDQIKIE", "folding stability dG": 2.73}, {"variant": "KKVTINGVEIKFNNPEMAVKFALELAKRLNLRIEFHGDQIKIE", "folding stability dG": 2.49}, {"variant": "KKVTINGVEIKFNNPEWAVKFALELAKRLNLRIEFHGDQIKIE", "folding stability dG": 2.84}, {"variant": "KKVTINGVEIKFNNPEEAVKFALELAKRLNKRIEFHGDQIKIE", "folding stability dG": 1.2}, {"variant": "KKVTINGVEIKFNNPEEAVKFALELAKRLNNRIEFHGDQIKIE", "folding stability dG": 0.824}, {"variant": "KKVTINGVEIKFNNPEEAVKFALELAKRLNLMIEFHGDQIKIE", "folding stability dG": 2.07}, {"variant": "KKVTINGVEIKFNNPEEAVKFALELAKRLNLNIEFHGDQIKIE", "folding stability dG": 2.03}, {"variant": "KKVTINGVEIKFNNPEEAVKFALELAKRLNLWIEFHGDQIKIE", "folding stability dG": 2.2}, {"variant": "KKVTINGVEIKFNNPEEAVKFALELAKRLNLRIEFHGDQICIE", "folding stability dG": 3.17}, {"variant": "KKVTINGVEIKFNNPEEAVKFALELAKRLNLRIEFHGDQIFIE", "folding stability dG": 3}, {"variant": "KKVTINGVEIKFNNPEEAVKFALELAKRLNLRIEFHGDQITIE", "folding stability dG": 2.69}, {"variant": "KKVTINGVEIKFNNPEEAVKFALELAKRLNLRIEFHGDQILIE", "folding stability dG": 2.86}, {"variant": "KKVTINGVEIKFNNPEEAVKFALELAKRLNLRIEFHGDQINIE", "folding stability dG": 2.52}, {"variant": "KKVEINGVEIKFNNPEEAVKFALELAKRLNLRIEFHGDQIKIE", "folding stability dG": 1.98}, {"variant": "KKVRINGVEIKFNNPEEAVKFALELAKRLNLRIEFHGDQIKIE", "folding stability dG": 2.18}, {"variant": "KKVKINGVEIKFNNPEEAVKFALELAKRLNLRIEFHGDQIKIE", "folding stability dG": 2.29}, {"variant": "KKVTINGVEIKFHNPEEAVKFALELAKRLNLRIEFHGDQIKIE", "folding stability dG": 2.45}, {"variant": "KKVTINGVEIKFLNPEEAVKFALELAKRLNLRIEFHGDQIKIE", "folding stability dG": 2.72}, {"variant": "KKVTINGVEIKFNNPEEAVKFALELAKRLNLRISFHGDQIKIE", "folding stability dG": 2.77}, {"variant": "KKVTINGVEIKFNNPEEAVKFALELAKRLNLRIRFHGDQIKIE", "folding stability dG": 2.58}, {"variant": "KKVTINGVEIKFNNPEEAVKFALELAKRLNLRIAFHGDQIKIE", "folding stability dG": 2.29}, {"variant": "KKVTINGVEIKFNNPEEAVKFALELAKRLNLRIEFHGDQCKIE", "folding stability dG": 2.22}, {"variant": "KKVTINGVEIKFNNPEEAVKFALELAKRLNLRIEFHGDQTKIE", "folding stability dG": 1.51}, {"variant": "KKVTLNGVEIKFNNPEEAVKFALELAKRLNLRIEFHGDQIKIE", "folding stability dG": 2.39}, {"variant": "KKVTPNGVEIKFNNPEEAVKFALELAKRLNLRIEFHGDQIKIE", "folding stability dG": 1.79}, {"variant": "KKVTKNGVEIKFNNPEEAVKFALELAKRLNLRIEFHGDQIKIE", "folding stability dG": 1.54}, {"variant": "KKVTDNGVEIKFNNPEEAVKFALELAKRLNLRIEFHGDQIKIE", "folding stability dG": 1.54}, {"variant": "KKVTHNGVEIKFNNPEEAVKFALELAKRLNLRIEFHGDQIKIE", "folding stability dG": 1.93}, {"variant": "KKVTGNGVEIKFNNPEEAVKFALELAKRLNLRIEFHGDQIKIE", "folding stability dG": 1.72}, {"variant": "KKVTINGVEPKFNNPEEAVKFALELAKRLNLRIEFHGDQIKIE", "folding stability dG": 1.19}, {"variant": "KKVTINGVEMKFNNPEEAVKFALELAKRLNLRIEFHGDQIKIE", "folding stability dG": 2.36}, {"variant": "KKVTINGVEIKFNNPEEAVKFALELAKRLNLRIEDHGDQIKIE", "folding stability dG": 1.5}, {"variant": "KKVTINGVEIKFNNPEEAVKFALELAKRLNLRIECHGDQIKIE", "folding stability dG": 3.05}, {"variant": "KKVTINGVEIKFNNPEEAVKFALELAKRLNLRIEAHGDQIKIE", "folding stability dG": 1.71}, {"variant": "KKVTINGVEIKFNNPEEAVKFALELAKRLNLRIEGHGDQIKIE", "folding stability dG": 1.41}, {"variant": "KKVTINGVEIKFNNPEEAVKFALELAKRLNLRIERHGDQIKIE", "folding stability dG": 1.8}, {"variant": "KKVTINGVEIKFNNPEEAVKFALELAKRLNLRIEFHGAQIKIE", "folding stability dG": 2.15}, {"variant": "KKVTINGVEIKFNNPEEAVKFALELAKRLNLRIEFHGCQIKIE", "folding stability dG": 3.49}, {"variant": "KHVTINGVEIKFNNPEEAVKFALELAKRLNLRIEFHGDQIKIE", "folding stability dG": 2.46}, {"variant": "KWVTINGVEIKFNNPEEAVKFALELAKRLNLRIEFHGDQIKIE", "folding stability dG": 2.88}, {"variant": "KPVTINGVEIKFNNPEEAVKFALELAKRLNLRIEFHGDQIKIE", "folding stability dG": 2.2}, {"variant": "KKVTINGVEIKFNYPEEAVKFALELAKRLNLRIEFHGDQIKIE", "folding stability dG": 2.41}, {"variant": "KKVTINGVEIKFNEPEEAVKFALELAKRLNLRIEFHGDQIKIE", "folding stability dG": 1.86}, {"variant": "KKVTINGVEIKFNAPEEAVKFALELAKRLNLRIEFHGDQIKIE", "folding stability dG": 2.25}, {"variant": "KKVTINGVEIKFNWPEEAVKFALELAKRLNLRIEFHGDQIKIE", "folding stability dG": 2.39}, {"variant": "KKVTINGVEIKFNCPEEAVKFALELAKRLNLRIEFHGDQIKIE", "folding stability dG": 2.98}, {"variant": "KKVTINGVEIKFNHPEEAVKFALELAKRLNLRIEFHGDQIKIE", "folding stability dG": 2.37}, {"variant": "KKVTINGVEIKFNRPEEAVKFALELAKRLNLRIEFHGDQIKIE", "folding stability dG": 2.44}, {"variant": "KKVTINGVEIKFNPPEEAVKFALELAKRLNLRIEFHGDQIKIE", "folding stability dG": 2.4}, {"variant": "KKVTINGYEIKFNNPEEAVKFALELAKRLNLRIEFHGDQIKIE", "folding stability dG": 2.82}]}]}
